The values that follow come from IntAct's records for PubMed 21209940.

To fix the notation:
B1: Myoblast determination protein 1 (Mus musculus), P10085 (parent)
chain: MELLSPPLRDIDLTGPDGSLCSFETADDFYDDPCFDSPDLRFFEDLDPRLVHMGALLKPEEHAHFPTAVHPGPGAREDEHVRAPSGHHQAGRCLLWACKACKRKTTNADRRKAATMRERRRLSKVNEAFETLKRCTSSNPNQRLPKVEILRNAIRYIEGLQALLRDQDAAPPGAAAFYAPGPLPPGRGSEHYSGDSDASSPRSNCSDGMMDYSGPPSGPRRQNGYDTAYYSEAARESRPGKSAAVSSLDCLSSIVERISTDSPAAPALLLADAPPESPPGPPEGASLSDTEQGTQTPSPDAAPQCPAGSNPNAIYQVL
partner: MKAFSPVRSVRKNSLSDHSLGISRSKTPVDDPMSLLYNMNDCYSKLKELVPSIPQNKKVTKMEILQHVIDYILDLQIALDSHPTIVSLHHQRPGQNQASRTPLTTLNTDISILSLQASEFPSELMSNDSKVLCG
B2: DNA-binding protein inhibitor ID-2 (Mus musculus), P41136 (parent)
chain: B1 partner

One test covers variants of B1. Conditions: with id2_mouse Id2, P41136.
I157K: the “effect of a mutation on the interaction” value is “disrupting interaction”.
With Q161K, the “effect of a mutation on the interaction” value is given as “decreasing interaction”.
With L150K, the “effect of a mutation on the interaction” value was “decreasing interaction”.
L160K: the “effect of a mutation on the interaction” value was “decreasing interaction”.
As for I149K, the “effect of a mutation on the interaction” value is reported as “disrupting interaction”.

Variants of B2 are the subject of another test. Particulars: with myod1_mouse Myod1, P10085.
On to L124K, for which the “effect of a mutation on the interaction” value is recorded as “decreasing interaction”.
In the case of V86K, the “effect of a mutation on the interaction” value is listed as “decreasing interaction”.
